According to patent publication US20170101470A1 (PROTHENA BIOSCIENCES, published 2017):
One block for each binder: values may come before it.

Assays:
[1] = target: laminin α-4 (UniProt Q16363 25-1823); assay: FACS on MCAM mutants displayed on mammalian cells
[2] = target: T1, recombinant hMCAM-His (human, UniProt P43121 24-559); assay: ForteBio Octet Red, antibody on anti-human Fc sensors, hMCAMHis analyte, 1:1 fit; affinity relative to rodent 2120, Expt. #1
T1 chain: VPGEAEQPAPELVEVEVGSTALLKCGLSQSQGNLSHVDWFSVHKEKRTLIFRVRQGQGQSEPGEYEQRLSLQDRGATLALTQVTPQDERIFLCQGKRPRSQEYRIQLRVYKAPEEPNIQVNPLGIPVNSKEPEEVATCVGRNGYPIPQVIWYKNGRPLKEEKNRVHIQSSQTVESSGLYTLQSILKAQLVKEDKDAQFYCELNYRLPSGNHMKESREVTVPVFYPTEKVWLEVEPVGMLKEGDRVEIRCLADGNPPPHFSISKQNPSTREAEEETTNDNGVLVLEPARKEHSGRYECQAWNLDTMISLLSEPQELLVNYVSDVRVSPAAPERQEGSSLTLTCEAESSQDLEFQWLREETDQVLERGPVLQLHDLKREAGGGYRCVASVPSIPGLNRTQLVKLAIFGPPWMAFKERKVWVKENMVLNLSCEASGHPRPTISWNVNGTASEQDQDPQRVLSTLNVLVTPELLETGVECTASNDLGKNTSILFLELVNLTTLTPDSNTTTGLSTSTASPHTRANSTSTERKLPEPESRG
Protocol: The affinities were measured using the ForteBio Octet Red. Anti-human Fc sensors were used to capture the humanized antibodies, and several concentrations of hMCAMHis analyte were used to determine the affinity using a 1:1 fitting model.

[3] = target: T1, recombinant hMCAM-His; assay: competitive ELISA on coated hMCAM-His, competitor biotinylated rodent or chimeric 2120; IC50 relative to rodent 2120, Expt. #1
Protocol: The apparent affinities of the humanized antibodies were compared to the parental rodent or chimeric antibody in a competitive ELISA according to the following protocol: ELISA plates were coated with recombinant hMCAM-His, and blocked with casein buffer to prevent non-specific binding. Biotinylated rodent or chimeric antibody was added at a subsaturating concentration, in the presence or absence of 3× increasing concentrations of unlabeled competitor (humanized antibody, rodent, or chimeric). After washing to remove unbound antibody, streptavidin HRP was added to allow detection of the biotinylated antibody. The ELISA was developed with TMB substrate and the OD450 was measured. The IC50 of the unlabeled competitor was determined using the GraphPad Prism5 software.

[4] = target: T2, human MCAM domain 3 hFc construct (human, UniProt P43121 244-321); assay: ForteBio Octet Red, MCAMhFc domains on anti-human IgG Fc sensors, antibody at 5 ug/ml
T2 construct: One of the 'various MCAMhFc domains' loaded on the ForteBio sensors; also called MCAMhFc domain 3
T2 sequence: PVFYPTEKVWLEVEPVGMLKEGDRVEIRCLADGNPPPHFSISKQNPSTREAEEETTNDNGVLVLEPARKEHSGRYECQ
Description: (§1) The following protocol was used: ForteBio anti-human IgG Fc biosensors were used to immobilize various MCAMhFc domains including full length MCAMhFc protein on to biosensor surface. […] After loading these samples into a black 96 well plate, the Octet Red was programmed as follows: 60 seconds for baseline #1; 180 seconds for loading various domains; 60 seconds for baseline #2; 180 seconds for association of antibody to domain; and 240 seconds for dissociation of antibody from domain.
(§2) Reagents and Supplies Used: [0358] 1. MCAMhFc final concentration @ 5 ug/ml [0359] […] 3. ForteBio anti-human IgG Fc Capture (AHC) biosensors for kinetics experiments, cat#18-5060 [0361] 4. Block 96 well plate from Greiner Bio-one, cat#655209 [0362] 5. ForteBio Octet Red machine [0363] 6. Fresh tissue culture medium, DMEM with 20% FCS, was used as buffer for dilution

[5] = target: T3, human MCAM-Fc protein (extracellular domain of human MCAM fused to human IgG) (human, UniProt P43121 24-559); assay: summary sentence of Example 3 (ForteBio, MCAMhFc)
T3 construct: also called hMCAM-Fc; MCAMhFc
T3 chain: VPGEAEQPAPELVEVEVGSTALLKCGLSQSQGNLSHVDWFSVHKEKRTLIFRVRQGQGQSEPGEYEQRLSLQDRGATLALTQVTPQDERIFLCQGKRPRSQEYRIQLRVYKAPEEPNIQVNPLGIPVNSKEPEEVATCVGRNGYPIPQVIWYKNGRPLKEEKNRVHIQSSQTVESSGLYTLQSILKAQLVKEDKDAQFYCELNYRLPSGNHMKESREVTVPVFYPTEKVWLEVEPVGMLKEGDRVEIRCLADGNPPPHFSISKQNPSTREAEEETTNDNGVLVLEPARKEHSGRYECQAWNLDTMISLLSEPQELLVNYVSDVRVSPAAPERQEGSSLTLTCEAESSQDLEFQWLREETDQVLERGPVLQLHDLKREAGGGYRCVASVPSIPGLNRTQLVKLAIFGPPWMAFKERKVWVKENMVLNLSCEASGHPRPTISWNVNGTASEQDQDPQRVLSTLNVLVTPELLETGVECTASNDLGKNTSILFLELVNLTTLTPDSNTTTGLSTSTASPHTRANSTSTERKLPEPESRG
Description: as §1, §2

[6] = target: T4, human MCAM expressed on CHO cells (full length human MCAM gene) (human, UniProt P43121 24-646); assay: flow cytometry: blocking of recombinant human laminin 411 (20 ug/ml) binding to CHO cells expressing human MCAM
T4 construct: also called hMCAM expressing CHO cells; CD146
T4 chain: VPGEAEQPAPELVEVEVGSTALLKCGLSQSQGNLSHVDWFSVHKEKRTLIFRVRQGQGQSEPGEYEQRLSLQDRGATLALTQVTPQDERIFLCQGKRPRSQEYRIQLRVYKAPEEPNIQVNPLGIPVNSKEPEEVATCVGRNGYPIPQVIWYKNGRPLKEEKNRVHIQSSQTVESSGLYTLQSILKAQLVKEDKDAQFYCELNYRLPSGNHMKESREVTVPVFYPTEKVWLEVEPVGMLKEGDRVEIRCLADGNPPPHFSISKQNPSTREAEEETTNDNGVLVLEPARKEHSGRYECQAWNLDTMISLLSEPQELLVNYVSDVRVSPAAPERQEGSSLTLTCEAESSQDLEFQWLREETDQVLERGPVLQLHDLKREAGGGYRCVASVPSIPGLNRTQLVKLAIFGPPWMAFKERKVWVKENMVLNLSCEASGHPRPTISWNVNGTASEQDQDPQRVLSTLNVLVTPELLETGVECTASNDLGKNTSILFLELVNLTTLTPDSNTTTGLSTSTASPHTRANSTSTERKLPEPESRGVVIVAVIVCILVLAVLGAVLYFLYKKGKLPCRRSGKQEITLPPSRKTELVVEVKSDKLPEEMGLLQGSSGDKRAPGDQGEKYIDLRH
Protocol: The 87 independent mouse fusion clones and 26 independent rat fusion clones described in Example 1 above as being capable of (i) binding to human MCAM, and (ii) blocking the interaction between human MCAM and the α-4 chain of laminin were further characterized as follows. First, IC50 quantitation for the ability of the monoclonal antibody to block the binding of human MCAM to the α-4 chain of laminin was determined as follows. CHO cells expressing human MCAM were incubated with an anti-human MCAM antibody (at various concentrations) for 30 minutes at 4 degrees Celsius. […] Unbound laminin was then washed away, and the laminin bound to the surface of the cells was detected with fluorescently labeled anti-laminin antibodies. After washing, the amount of laminin bound to the surface was detected by flow cytometry, and IC50s were calculated based on the mean fluorescent intensity.
Amino acid and nucleic acid sequences of the heavy and light chains of these antibodies, and their hypervariable regions, are provided in SEQ ID NOs:29-92. […] As such, each of these specific monoclonal antibodies was very capable of binding to human MCAM and inhibiting the interaction of cell-expressed human MCAM with its α-4 laminin binding ligand.

[7] = target: T5, human MCAM domain 2 hFc construct (human, UniProt P43121 139-242); assay: ForteBio Octet Red, MCAMhFc domains on anti-human IgG Fc sensors
T5 construct: One of the 'various MCAMhFc domains' loaded on the ForteBio sensors; also called MCAMhFc domain 2
T5 sequence: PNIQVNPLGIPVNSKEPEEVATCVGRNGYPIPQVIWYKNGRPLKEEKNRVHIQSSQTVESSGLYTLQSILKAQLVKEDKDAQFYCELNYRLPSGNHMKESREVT
Description: as §1, §2

[8] = target: T6, human MCAM domain 1 hFc construct (human, UniProt P43121 19-129); assay: as above
T6 construct: One of the 'various MCAMhFc domains' loaded on the ForteBio sensors; also called MCAMhFc domain 1
T6 sequence: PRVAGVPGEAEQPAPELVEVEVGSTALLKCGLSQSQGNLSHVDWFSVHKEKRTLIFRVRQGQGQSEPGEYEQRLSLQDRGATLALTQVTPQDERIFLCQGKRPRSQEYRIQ
Description: as §1, §2

[9] = target: T7, human MCAM domains 1 and 2 hFc construct (human, UniProt P43121 19-242); assay: as above
T7 construct: One of the 'various MCAMhFc domains' loaded on the ForteBio sensors
T7 sequence: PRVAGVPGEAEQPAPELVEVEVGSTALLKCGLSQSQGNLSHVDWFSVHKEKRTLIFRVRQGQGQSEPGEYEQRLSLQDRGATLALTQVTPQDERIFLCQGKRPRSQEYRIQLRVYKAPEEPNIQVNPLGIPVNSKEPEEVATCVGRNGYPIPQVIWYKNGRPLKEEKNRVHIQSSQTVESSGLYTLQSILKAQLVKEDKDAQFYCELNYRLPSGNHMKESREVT
Description: as §1, §2

Chain of laminin α-4 (Q16363 25-1823): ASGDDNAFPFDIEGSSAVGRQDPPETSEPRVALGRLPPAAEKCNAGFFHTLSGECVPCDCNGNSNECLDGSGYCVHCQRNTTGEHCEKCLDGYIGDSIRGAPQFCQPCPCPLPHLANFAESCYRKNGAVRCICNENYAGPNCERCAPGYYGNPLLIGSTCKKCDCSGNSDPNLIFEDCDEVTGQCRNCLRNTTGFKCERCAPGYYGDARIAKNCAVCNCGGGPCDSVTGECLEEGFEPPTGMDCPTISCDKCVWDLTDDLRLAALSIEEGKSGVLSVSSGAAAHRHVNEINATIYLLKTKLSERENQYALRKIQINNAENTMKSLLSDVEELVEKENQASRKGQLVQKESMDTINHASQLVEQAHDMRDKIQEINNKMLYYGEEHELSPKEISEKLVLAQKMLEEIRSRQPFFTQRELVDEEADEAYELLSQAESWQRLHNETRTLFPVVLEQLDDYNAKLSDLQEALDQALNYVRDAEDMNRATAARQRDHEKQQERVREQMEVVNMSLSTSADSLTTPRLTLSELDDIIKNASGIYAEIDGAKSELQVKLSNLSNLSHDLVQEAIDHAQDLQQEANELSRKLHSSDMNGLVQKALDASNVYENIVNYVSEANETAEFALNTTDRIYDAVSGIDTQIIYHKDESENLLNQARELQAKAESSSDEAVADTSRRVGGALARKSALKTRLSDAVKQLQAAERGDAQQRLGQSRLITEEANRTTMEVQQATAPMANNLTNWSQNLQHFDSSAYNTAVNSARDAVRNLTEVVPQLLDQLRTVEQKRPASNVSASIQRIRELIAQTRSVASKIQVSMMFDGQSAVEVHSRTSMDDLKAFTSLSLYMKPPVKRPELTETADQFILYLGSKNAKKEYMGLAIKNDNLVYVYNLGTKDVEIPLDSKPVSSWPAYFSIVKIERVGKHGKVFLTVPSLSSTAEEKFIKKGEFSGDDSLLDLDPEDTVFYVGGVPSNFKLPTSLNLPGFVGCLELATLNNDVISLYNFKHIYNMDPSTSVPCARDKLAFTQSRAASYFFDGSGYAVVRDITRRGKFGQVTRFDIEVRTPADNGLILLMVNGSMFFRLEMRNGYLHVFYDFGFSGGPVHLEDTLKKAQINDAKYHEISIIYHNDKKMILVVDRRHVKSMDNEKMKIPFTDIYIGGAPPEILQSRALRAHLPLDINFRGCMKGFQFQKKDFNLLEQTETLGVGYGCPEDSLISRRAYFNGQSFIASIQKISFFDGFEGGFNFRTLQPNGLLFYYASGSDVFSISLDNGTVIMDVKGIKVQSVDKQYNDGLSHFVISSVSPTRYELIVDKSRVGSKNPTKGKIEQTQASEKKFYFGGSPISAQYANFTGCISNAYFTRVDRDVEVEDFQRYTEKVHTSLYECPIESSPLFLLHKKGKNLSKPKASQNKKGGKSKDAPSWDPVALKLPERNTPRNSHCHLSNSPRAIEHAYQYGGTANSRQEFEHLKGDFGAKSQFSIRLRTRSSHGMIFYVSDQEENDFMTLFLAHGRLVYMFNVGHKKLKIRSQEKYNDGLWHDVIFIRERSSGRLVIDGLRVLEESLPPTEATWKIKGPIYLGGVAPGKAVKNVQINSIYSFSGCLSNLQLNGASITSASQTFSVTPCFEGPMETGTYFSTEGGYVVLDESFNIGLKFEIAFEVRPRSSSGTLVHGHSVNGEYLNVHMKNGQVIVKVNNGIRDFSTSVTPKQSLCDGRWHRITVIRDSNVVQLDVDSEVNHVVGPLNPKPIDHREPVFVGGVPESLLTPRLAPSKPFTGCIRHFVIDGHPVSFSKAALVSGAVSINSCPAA

- binding result [1]: no binding
B1: human MCAM D216A mutant displayed on mammalian cells (Example 5) (receptor)
chain: VPGEAEQPAPELVEVEVGSTALLKCGLSQSQGNLSHVDWFSVHKEKRTLIFRVRQGQGQSEPGEYEQRLSLQDRGATLALTQVTPQDERIFLCQGKRPRSQEYRIQLRVYKAPEEPNIQVNPLGIPVNSKEPEEVATCVGRNGYPIPQVIWYKNGRPLKEEKNRVHIQSSQTVESSGLYTLQSILKAQLVKEAKDAQFYCELNYRLPSGNHMKESREVTVPVFYPTEKVWLEVEPVGMLKEGDRVEIRCLADGNPPPHFSISKQNPSTREAEEETTNDNGVLVLEPARKEHSGRYECQAWNLDTMISLLSEPQELLVNYVSDVRVSPAAPERQEGSSLTLTCEAESSQDLEFQWLREETDQVLERGPVLQLHDLKREAGGGYRCVASVPSIPGLNRTQLVKLAIFGPPWMAFKERKVWVKENMVLNLSCEASGHPRPTISWNVNGTASEQDQDPQRVLSTLNVLVTPELLETGVECTASNDLGKNTSILFLELVNLTTLTPDSNTTTGLSTSTASPHTRANSTSTERKLPEPESRGVVIVAVIVCILVLAVLGAVLYFLYKKGKLPCRRSGKQEITLPPSRKTELVVEVKSDKLPEEMGLLQGSSGDKRAPGDQGEKYIDLRH
notes: construct and any tag not described

- Fold over rodent (Forte) [2]: 16.1 fold
- Fold over rodent (ELISA) [3]: 3.47 fold
B2: humanized anti-MCAM antibody h2120_VH3 + h2120_VL3 (antibody, V domains shown)
VH: QVTLKESGPVLVKPTETLTLTCTVSGFSLTSSGVSWVRQPPGKALEWIAAISSGGTTYYNSAFKSRLTISRDTSKSQVVLTMTNMDPVDTATYYCARRYGYGWYFDFWGQGTLVTVSS
VL: DIQMTQSPSSLSASVGDRVTINCKASQNIYNSLAWYQQKPGKAPKVLIFNANSLQTGIPSRFSGSGSGTDFTLTISSLQPEDFATYYCQQFYSGYTFGQGTKLEIK
notes: Human IgG1 / human kappa; also called h2120VH3VL3; N-S deamidate VH + conservative VL

- binding result [4]: binds
- binding result [5]: binds
- IC50 [6]: 0.307 µg/mL
- binding result [7]: no binding (tested: 5 ug/ml)
- binding result [8]: no binding (tested: 5 ug/ml)
- binding result [9]: no binding (tested: 5 ug/ml)
B3: mouse anti-human MCAM monoclonal antibody clone 1415.1.1 (antibody, V domains shown)
VH: QVQLQQPGAELVQPGAPVKLSCKASGYIFTSYWMNWVKQRPGRGLEWIGRIDPSDSKIHYNQKFKDKATLTVDRSSSTAYIQLGSLTSEDSAVYYCAKEGGLRRGDYAMDYWGQGTSVTVSS
VL: DIVMTQSPATLSVTPGDRVSLSCRASQSISDYLHWYQQKSHESPRLLIKYASQSISGIPSRFSGSGSGSDFTLSINSVEPEDVGVYYCQNGHNFPRTFGGGTKLEIK
notes: Mouse hybridoma antibody
